Results published in the supplement of paper PMC12042874.
± gives the uncertainty stated by the source.

Assay: amyloid nucleation score (Sup35N fusion, yeast selection) (log enrichment); library NNK3; higher = more nucleation; inactive = no reads after selection
How it was run: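 Nucleation score: DiMSum log enrichment of output over input reads, centred on the mode score of non-aggregating sequences. Only sequences with at least 100 input reads were kept. Reads came from Illumina sequencing of plasmid inserts before and after 7 days of growth at 30°C without adenine and uracil, in psi-negative yeast expressing Sup35N fused to peptides of 20 random codons after 24 hours of induction with 100 μM copper sulfate.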

Substance	amyloid nucleation score
KRDEVVKFLLDGVGASGYNA	inactive
KRDTSWLPVCNSGLSQCRKR	inactive
KRFDMMHIQTYEMGWSPSVR	inactive
KRFVFPLLIR	inactive
KRKQVSFTH	inactive
KRWGEPYRMIVGYMVRYMVT	2 ± 0.089
KRYNRFIGHLMTLYRASMGD	-0.714 ± 0.88
KSCWLSYGFQLFIGVMNMH	1.29 ± 0.079
KSGYCNKCMNGFSGTLTSNY	inactive
KSLSGVIREENRDARGFWRS	inactive
KSPVWIQIPLMCFLLEFVLG	0.471 ± 0.2
KSQYTSASP	inactive
KSRERFLCSKGMSPQQTHMY	inactive
KSRKFYKTSLCLMNTYLMNM	inactive
KSSMKLLSPP	inactive
KSTICACTLIMVNTPFMLSM	1.36 ± 0.11
KSVVGFFVSARYCCTLGTGG	inactive
KSWNGQMYCVASGKQKTIMY	inactive
KSWVIKLSGFVETWHRMD	inactive
KSYLAVVSYFGFTKKADPTG	inactive
KTDIPGNHFLTSARLCAG	inactive
KTLYTDSS	0.114 ± 0.58
KTWVSIVSGLKADSGGGLHA	inactive

Substance	amyloid nucleation score
KVAILVHILNNLVRVRVCFN	inactive
KVARIVPRFKRQDYTALILD	inactive
KVCGCSILLLKLRGVNRVVS	inactive
KVCHSWVWHILGSLDYITRG	inactive
KVGAGIDIISFIRNLILALP	inactive
KVGFLFDGLFIFGGR	inactive
KVIDGFLTLLSVNHRCKAWQ	inactive
KVIDGVDAMWCMKVFWV	inactive
KVTYFKSMMHYDNMQSSVRC	inactive
KWNRLLVMRLAVIECRARVA	0.033 ± 0.9
KWYIMCLVNILVEVIIFNYF	inactive
KWYQVGSVLKRIRLNILRG	-1.51 ± 2.4
KYDVGVYLYLLLPTNCRQQW	1.46 ± 0.12
KYGVLLRIHR	0.499 ± 0.72
KYHMFRWGLSC	inactive
KYKSVCVKFNEDLTG	inactive
KYLLLKRNARQRLHTVCHQA	inactive
KYMGAVFYIIHRTEERYF	0.874 ± 0.13
KYSTSPNFKIIQVLMGLPLR	inactive
KYVVSYLGFKFGWKHYSKYY	inactive
KYVYYSFLERSFDYMYFSRQ	inactive
KYYINVVNRRYLNYFGTWLF	0.617 ± 0.12
LAAICYEVFGCGTWMGC	inactive

Substance	amyloid nucleation score
LAFADRITGYGWSGTVRMMW	inactive
LAKHSFSFGVYCNSRNSVMY	inactive
LASFEIRNREY	0.519 ± 0.33
LATRWRCCSCNAWS	-0.593 ± 1.1
LAVGRTWMLVANWDSMGQIV	inactive
LAYVHMGGIARWLC	inactive
LCCAPNADFWIN	inactive
LCCGKCRPGPKFCTKISHTN	inactive
LCCSCWLLIDCQWKDGYLEG	1.91 ± 0.079
LCIPVDFVGGTIRLCVL	inactive
LCKSMRNDSLDYFLHCPGML	inactive
LCLFRTRVIGVS	inactive
LCLHERCDALSFDDNPYSTR	inactive
LCMFPLIWFILLFRFFKLWG	inactive
LCMQFNLVWRYDRRETINSE	1.16 ± 0.11
LCRKPFDVGLGRV	inactive
LCRSGIFKSYWNITMFFKFL	inactive
LCTLMCTQFNYFVSETWLVP	2.25 ± 0.093
LCTLSCFAICD	0.74 ± 0.18
LCVMCCATSFSHVCILIYRI	inactive
LCVYTYTSTHAVFFIVFDSR	inactive
LCWTVVIHVRTAVRIWLTSR	inactive
LCYAWRSGSNTYMHMMNWSM	inactive

Substance	amyloid nucleation score
LDAVNF	inactive
LDFRLFGFPDKNEHYGGEYK	inactive
LDFRSVTDVWSCYI	inactive
LDGRYKYILFLLPLCRW	inactive
LDKAHHHLETAKLLLAWGVI	inactive
LDKFHCRFYMQNSN	inactive
LDLLHFGYFIYFDEL	inactive
LDMQEPPVNAVRHYLSL	inactive
LDRSVMIRFGLELMRWSSGG	0.356 ± 0.35
LDTSD	inactive
LDTYTRNYLD	inactive
LDYNVRVGIVSRFTQLTHVN	inactive
LDYPNVCMDFLSKVFRDSVR	inactive
LEFSYPCRWA	inactive
LEGLMANVMRGFRSVVPATW	inactive
LEGSKKSDSSLARSWYFFET	inactive
LELGTLTNRSLCFCEILPFC	inactive
LESLPINNEFSMQSYTRIVI	inactive
LFCLLLHNIGKFRYMFY	inactive
LFDALYLEVTLGSSMVYVKN	inactive
LFELDKLNRVHLNGVMGVII	inactive
LFFSRS	inactive
LFFYFLEPR	inactive

Substance	amyloid nucleation score
LFGQVVGVDFFNWWCFEMHK	inactive
LFLKFDNSSWLMLKVMDTNI	0.961 ± 0.19
LFLRDNF	inactive
LFLSMGYLDGFYPIRSISYL	inactive
LFMINLDPASMVHMTPCFTN	inactive
LFMLIFGCVHARNYFKPKKV	inactive
LFNLL	inactive
LFNYVEEIRAVRRIRLGYIK	inactive
LFQLHMVLSF	inactive
LFRHLVNRLNLTSTAKYHGF	inactive
LFSQHYWIVSIFIASWIRYC	inactive
LFSSVC	inactive
LFSVMSKYSFRWLRDNFCHA	inactive
LFTDPCCTIGMSFRV	1.08 ± 0.075
LFVCRLMENLEGY	inactive
LFVYHCYIFSMRSRCMSHLY	inactive
LFYDCELGLTSVRWLGWGRN	inactive
LFYIWQSFQFRN	inactive
LGCTGALNNRCCERQANGRQ	inactive
LGEWYWYYFFRARR	inactive
LGKGICKSTWLQQCRGKSDF	inactive
LGPAVELGMT	inactive
LGPMAGRVSRYCNAARLTRC	-0.999 ± 2.4

Substance	amyloid nucleation score
LGQFAIAQYFNRYSRGPMLW	inactive
LGRCRWMDPHILLVLHVPCE	inactive
LGRLVG	inactive
LGRPYQHVWYIHSEVKGVEY	0.116 ± 0.28
LGRRLAMSV	0.692 ± 0.19
LGSLPGGETLHCLNRFQRLS	inactive
LGSMAINCNERCITWCHRFI	0.668 ± 0.25
LGTGSLNHST	inactive
LGVRCYNFIRFKYLSCLRLP	inactive
LGYIQEN	inactive
LHAFLEVSVRYTKSRST	inactive
LHALFVLSMGQA	inactive
LHEEGCATVLKVGCALTSEC	inactive
LHEENA	inactive
LHIHRFWQQPHTNAGRIPHP	inactive
LHKLVLMINDRPYLKPS	inactive
LHVDS	inactive
LHVSWGGLSGDTLFTRKVGV	inactive
LHVYTSILWWTYKVDVWLLS	inactive
LHYKCNDVHQNGMLELCYLN	inactive
LIACNVPVVEVRTSIGVKDI	inactive
LIADHIVRSSSLMSWFSPSR	inactive
LIEDVYLWLCYHRVGYLSAS	inactive

Substance	amyloid nucleation score
LIFFRVVSQLFKFSLRDLPL	inactive
LIGCVLGSLFLRDIFIYCLM	0.409 ± 0.67
LIHFV	inactive
LIILWRQ	1.27 ± 0.079
LINGTGDRMYTDLLL	inactive
LIPQRDNMGGGFRTFSLCYV	inactive
LIRMFISVMSYCMTVGLGMG	inactive
LIRTIEYLGRRISSQGCLHT	inactive
LISAYVGWDICLASML	inactive
LIVFWDGFMCT	inactive
LIVNSRSVFNITHFLNINYQ	2.1 ± 0.077
LIYLYWGLFVTSNSLETCR	1.4 ± 0.086
LIYVFIIFVMIFWVCCTMRS	0.166 ± 0.42
LKADRVVSFFWLCSFIFTSI	inactive
LKIFKCI	inactive
LKKVCDECRFSESPLVPEVA	1.06 ± 0.13
LKLTMSFMSQDLIIHVIDCS	inactive
LKMMSLLTSEATSMHHGVNW	inactive
LKNPARYYYVVQIFMVLSTA	inactive
